Laboratory results taken from a protein production outcome set (Wang et al. 2014).

assay: label from the status in PepcDB records

| Sequence | protein production |
| --- | --- |
| VSVIMPVLNEERHLRGAVQAILAQEYDGEMEVVIAIGPSSDRTEEIAAELVREDPRVHTVPNPTGRTPAALNAAIKASRHPVVVRVDGHGMLSPNYIATAVRLLAETGAQNVGGIMHAEGENDWEHAVAAAMTSKIGVGNAAFHTGGEAGPAETVYLGVFRREALEQQGGYNEEFIRAQDWELNFRIREAGGLIWFSPELKVSYRPRPSVRALAKQYKDYGRWRHVVARYHEGSINLRYLAPPTAVCAIAAGVVVGLALTPWGLVVPGGYLAAIALGS | failed |
| VTLLVKSPNQRHRDLELSGDRGWSVGHLKAHLSRVYPERPRPEDQRLIYSGKLLLDHQCLRDLLPKQEKRHVLHLVCNVK | not failed |
| VTSDPGTAAPVKRTAEQSRSLIVDAAGRAFATRPYREITLKDIAEDAGVSAPLIIKYFGSKEQLFDALVDFRAAAEIVFSGPLDGLGERMVSMFARPLEPYKPLSLNILFMSGPSEESSRKLRANYSAQMIDALAERLPGRDARLRAELVMSMLTGLAVMRRKMMQEHATGTPEEVVAHYAPLVQELLDG | not failed |
| VVQRAAETYDLLKQRTEELRRANAQMSLLTVLVQVTQASNSLEAILTPIATAFAESFAVNACILQMLEGQTLSTIQGFYSQQGTVNNWLNQDPLTNEAIATGQIQVAANIAKDPKLASISQYQDNGIQSHVVIPITYRNEMLGVLSLQWQQPISLREDELTLIHLSAQLVAIALTSSRCSL | not failed |
| WKPELDELARRENFAQQMGGIDKVKRQHDQGRLTVRERIDRLSDAGSFHEIGAVAGLGEYDANGELINLTPANCVFGRAKIDGRTVVVVGDDFTVRGGSADASIHAKPQMAEEMAHDYRLPIIRVIEGSGGGGSVRTIESKGAANLPGGVDGTRWYWYTTAN | failed |
| WRGIRQRKLHAEELLRLAMAHLRNQGKPVRIVDIAAGHGRYILESLRGVEPLPESILLRDYSDINVRDGSLLIEQKDLEDIARFVKGDAFDRNDLATLDPKPTLAVVSGLYELFSSNQMVGDSLAGLAAAVEPGGYLVYTGQPWHPQLELIARALTSHREGQAWVMRRRSQSEMDQLVEAAGFRKITQRVDEW | failed |
| WTCNKFRCGEKRLTRSLCACSDDCKDQGDCCINYSSVCQGEKS | not failed |
| YAMSIYAAQHDVRIVNPYFVPTSSIRKALKRALNRGTKVEIMISSKSDIPFTPDASLYAVQKLMKKGAMIYLYNGGFHHSKIMMVDDLFCTVGTANLNSRSLRYDYETNAFIFDKDITQQLNDVFEADMLHCTRLTPEMWKQKSAWKKFKCWFANLFTPFL | failed |
| YLYFNSDSFILLIAPTRSGKGVGVVIPNLLVYNQSMVILDLKQENFSITSKYRAKYGQQVFLFNPFTENGQTHRYNPLSYVREGDCKIGDILTITASFYPIDDLKNSFWNNQASNLFLGLALMISETPSLPFTIGELLRQSSGKGKPLKEYLQGIMDDREKSSSPLSESCIDALNRFIALTDNSLSNVLASFNAPLTLWANPLFDAATSANDFDLRELRKKKMTVYIGITPDYLEQAERILNLFFSQLININTKELPEHNPELKYQCLLVMDEFTAMGRIGILAKSVSYMAGYGLRLLTIIQAPSQLDSVYGKEEARTYKTNHAGQILFAPRENEDAEEYSKAIGYKTVKAKSNSKTRGELKQTDSTSDQRRAVMLPQEIKEIGMWKEIICIENLKPIFCKKVQYFNDPVFIDRLKEVSS | failed |
| YQAIYRRATTYLAMGRGKAAIVDLERVLELKPDFYGARIQRGNILLKQGELEAAEADFNIVLNHDSSN | failed |
| YTSADNTWEPEENCDCPNLIQKFEESRAKSKKRGEKKPKCEEIQKLRGYERGLELAEIVGATDVTGDIKYLVRWQFCDEFDLVPSAQIVEKDPQMLIDYFQK | failed |
| YVFTVELERGPSGLGMGLIDGMHTHLGAPGLYIQTLLPGSPAAADGRLSLGDRILEVNGSSLLGLGYLRAVDLIRHGGKKMRFLVAKSDVETAKKIH | not failed |
